What was measured:
Test in all cases: cell-based or functional assay
[1] = biological target: transthyretin (TTR), pre-incubated at pH 4.5 for 24 hrs, toxic oligomer-containing solution (UniProt P02766)
[2] = biological target: β-amyloid peptide 1-42 (Aβ), pre-aggregated for 6 hrs, toxic oligomer-containing solution (UniProt P05067)
[3] = biological target: β-amyloid peptide 1-42 (Aβ), fresh (0 h), monomeric (UniProt P05067)
Sequence of β-amyloid peptide 1-42 (Aβ), fresh (0 h), monomeric (P05067 672-713 limits assumed): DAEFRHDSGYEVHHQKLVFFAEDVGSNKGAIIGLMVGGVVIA

Sequence of β-amyloid peptide 1-42 (Aβ), pre-aggregated for 6 hrs, toxic oligomer-containing solution (P05067 672-713 limits assumed): as above

Row | inhibition of Aβ fibrillization (ThT fluorescence; co-incubated 10:1) [3] | Substance | inhibition of the remaining TTR aggregation after addition to 24-hour pre-incubated, toxic TTR (Congo red) [1] | percentage inhibition of TTR aggregation (Congo red binding, 48 h, 37° C., pH 4.5; peptide co-incubated 20:1 from the start) [1] | inhibition of Aβ fibril formation (ThT fluorescence, 22 hours, 37° C.; peptide co-incubated 10:1 from the start) [2] | inhibition of aggregation after addition to pre-aggregated (6 hrs), toxic Aβ (ThT) [2]
1 | – | α1 (ldas90, peptide #1 of FIG. 5), Ac-RGEmNlSwMNEYSGWtMnLkMGR-NH2 (designed binder) | 81% | 72% | 87% | 97%
2 | 62% | β (β-sheet control design: Trpzip 3 peptide with Trp to Leu substitutions) (designed binder) | – | – | – | –
